Data as given in US20250206841A1 (ADEPT THERAPEUTICS, published 2025).
Where a chain is given by its changes, count along the chain named.

T1: human Trop-2-His protein (human, UniProt P09758 27-274)
T1 construct: extracellular domain; Assay paragraphs say only 'Trop-2-His'; also called hTrop-2; Kactus Cat #TRP-HM121; not shown: His tag
T1 sequence (looked up): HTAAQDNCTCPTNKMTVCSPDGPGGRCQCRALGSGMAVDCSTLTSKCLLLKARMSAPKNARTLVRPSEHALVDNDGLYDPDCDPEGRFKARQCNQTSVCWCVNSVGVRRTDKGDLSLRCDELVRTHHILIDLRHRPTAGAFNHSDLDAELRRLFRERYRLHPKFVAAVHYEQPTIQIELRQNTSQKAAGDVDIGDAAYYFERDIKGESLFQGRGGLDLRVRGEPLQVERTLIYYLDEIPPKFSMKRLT

T2: cynomolgus Trop-2-His protein (cynomolgus, UniProt P09758 27-274 (human entry))
T2 construct: also called cynmolgus Trop-His; Kactus Cat #TRP-CM121; not shown: His tag
T2 chain: T1 sequence (looked up) with M36V, S67N, G139S, I204V

B1: 2H5 (antibody, V domains shown)
VH: QSLEESGGDLVQPGASLTLTCKASGFDLNNYSILWVRQAPGKGLEWIGCIYFSGGSTYYANWAKGRFAISKTSSTTVTLQMTSLTAADTATYFCARDDGTTSYYLNLWGPGTLVTVSS
VL: YDMTQTPASVSEPVGGTVTIKCQASEDIYNLLAWYQQKPGQPPKLLIYAASDLESGVPSRFKGSGSGTEYTLTISDLECADAATYYCQQAYTVGNIDNAFGGGTEVVVK
notes: Rabbit-derived clone; LEM construct: VH + rabbit IgG CH1 + human IgG1 CH2-CH3
B2: 10D3 (antibody, V domains shown)
VH: B1 VH with S24A, I33M, F52I, S56T, N61S, A68T, T100S
VL: B1 VL with N30R, A49D, E54A, D76G, E78Q, A90G, V93I, A99S
notes: as for B1
B3: 10E12 (antibody, V domains shown)
VH: B1 VH with S32A, I33M, F52I, S56T, Y59F, N61S, K64T
VL: B1 VL with E12A, P13A, N30S, A49D, E54A, A80D, V93I
notes: as for B1
B4: 8H2 (antibody, V domains shown)
VH: B1 VH with S32A, I33M, F52I, S56T, Y59F, N61S, K64T, T100S
VL: B1 VL with E12A, P13A, N30S, A49D, E54A, D76A, A80D, V93I, A99T
notes: as for B1
B5: 10F12 (antibody, V domains shown)
VH: B1 VH with K22R, I33M, F52I, S56T, Y59F, N61S, K64T, T100S
VL: B1 VL with E12A, P13A, N30S, Y48F, A49D, E54A, A80D, V93I
notes: as for B1
B6: 12G6 (antibody, V domains shown)
VH: QEQLKESGGGLVQPGGSLTLSCKASGFDFNNYGVSWVRQAPGKGLEWIGYIYPAYHNTYYATWVNGRFTISSHNAQNTLYLQLNTLTAADTATYFCARDAGNTDYNFNLWGPGTLVTVSS
VL: DVVMTQTPASVEVAVGGTVTIKCQASEDIESYLAWYQQKPGQPPKLLIYEASKLASGVSSRFSGGGYGTEFTLTISGVECADAATYYCQQALTIGNVDNPFGGGSEVVVK
notes: as for B1
B7: 3A4 (antibody, V domains shown)
VH: B6 VH with K5V, A24G, N31E, G49A, Y55F, N84H, N102T
VL: B6 VL with E12S, V13A, T20S, K22N, S31N, G65S
notes: as for B1
B8: 3E9 (antibody, V domains shown)
VH: B6 VH with T19K, G49A, Y55F, T58R, T62N, H73D, L79V, T85S, N102S, N106K
VL: B6 VL with E12S, V13A, E50D, K53T, G65S, A91D, I94V, K110E
notes: as for B1
B9: 69H10 (antibody, V domains shown)
VH: B6 VH with T19K, N31K, G49A, Y55F, N102T
VL: DVVMTQTASPVSAAVGGTVTIKCQASQSIYSYLSWYQQKPGQPPKLLIYEASKLASGVSSRFSGSGYGTEFTLTISGVECADAATYYCQQALTVGNVDNPFGGGSEVVVK
notes: as for B1
B10: 2H3 (antibody, V domains shown)
VH: B6 VH with V12G, A100T, N102T
VL: B6 VL with I94V
notes: as for B1
B11: 9A5 (antibody, V domains shown)
VH: B6 VH with G49A, A54T, N102G
VL: B6 VL with V13A, K22N, E27Q, D28S
notes: as for B1
B12: 62A10 (antibody, V domains shown)
VH: QSLVESGGGLVQPEGSLTLTCKASGFDFNNYAVTWVRQAPGEGLEYIGFIGIRGHIYYANWAKGRFTISKTSSTTMTLQMTSLTVADTATYFCARGGLWTGNSYFDLWGPGTLVTVSS
VL: YDMTQTPASVEVAVGGTVTINCQASESISRYLAWYQQKPGQSPKPLIYRASTLASGVPSRFQGSGSGTEYTLTISDLECADAATYYCQQGYGYSTVDNAFGGGTEVVVK
notes: as for B1
B13: 70E2 (antibody, V domains shown)
VH: QSLEESGGGLVKPGGTLTLTCTVSGFDFSNYAMTWVRQAPGKGLEYIGFIGIRGNIYYANWAKGRFTISKTSSTTVTLQMTSLTVADTATYFCARGGLWTGNSYFDLWGPGTLVTVSS
VL: B12 VL with A13P, S27N, S29N, S42P, S51A, Q62K, T73S, D97G
notes: as for B1
B14: 71F10 (antibody, V domains shown)
VH: B13 VH with K12Q, G15A, T16S, N30S, Y31N, K42E
VL: B12 VL with E11S, V12A, S42P, Q62K, S66T, E69D, D97G
notes: as for B1
B15: 73C2 (antibody, V domains shown)
VH: B13 VH with M33V, K42E, I50V, R53Y, N55D, I56F, T81P
VL: B12 VL with S29N, P39R, S42P, S51A, Q62K, D97G
notes: as for B1

What follows are binders tested against T1, human Trop-2-His protein (assay: BLI (Gator Prime), LEM supernatant Ab on HFC probe).
Description: (§1) After three times of regeneration and neutralization of HFC probe (Gator, Cat #160003), LEM transfection supernatant samples to be tested in K buffer was diluted 1:1 in K buffer and immobilized onto HFC probe. […] The association and dissociation of human or cynomolgus Trop-2-His antigen from antibody was measured on BLI machine Gator Prime. Affinity was calculated using Gator Bio analysis software. Blank control was used for reference subtraction. 1 μg/ml of Sacituzumab govitecan was used as positive control.
(§2) Table 23 below summarizes the binding affinity of exemplary anti-Trop-2 antibodies in LEM transfection supernatant samples to human and cynomolgus Trop-2 using Gator.

Kd [nM] | koff [s⁻¹] | kon [M⁻¹ s⁻¹] | Binder
0.822 | 0.00027 | 331000 | B1
0.562 | 0.00019 | 339000 | B2
0.173 | 6.8e-05 | 391000 | B3
0.227 | 9.6e-05 | 423000 | B4
0.173 | 6.8e-05 | 391000 | B5
1.22 | 0.00047 | 386000 | B6
1.38 | 0.00069 | 500000 | B7
0.675 | 0.00038 | 568000 | B8
0.989 | 0.00046 | 465000 | B9
0.269 | 0.00013 | 488000 | B10
0.767 | 0.00041 | 529000 | B11
0.959 | 0.00051 | 532000 | B12
0.871 | 0.00038 | 430000 | B13
0.696 | 0.00032 | 459000 | B14
3.85 | 0.0011 | 284000 | B15

Biological target: T2, cynomolgus Trop-2-His protein
Experiment: BLI (Gator Prime), LEM supernatant Ab on HFC probe
Description: as §1, §2

Kd [nM] | koff [s⁻¹] | kon [M⁻¹ s⁻¹] | Binder
0.582 | 0.00027 | 460000 | B1
0.455 | 0.00019 | 454000 | B2
0.168 | 6.8e-05 | 605000 | B3
0.221 | 9.6e-05 | 677000 | B4
≤ 0.132 | ~5.62e-05 | 426000 | B5
0.911 | 0.00047 | 603000 | B6
1.17 | 0.00069 | 729000 | B7
0.538 | 0.00038 | 888000 | B8
0.893 | 0.00053 | 592000 | B9
0.113 | 0.00013 | 727000 | B10
0.698 | 0.00041 | 919000 | B11
1.27 | 0.00092 | 726000 | B12
0.892 | 0.00059 | 657000 | B13
0.755 | 0.00054 | 721000 | B14
4.63 | 0.0017 | 364000 | B15
